Here are results for 10 molecules from US20240409658A1 (Seagen, published 2024).

Where two headings read alike, the source gives them in different places.

The target in assay [1] is human CD228 (R&D Systems Custom02; Lot DCWR021505A) (human) (UniProt P08582). The assay is described as follows: ELISA on plate-coated human CD228, pH 5.9. (In general: In an ELISA, binding on a coated surface is turned into a signal by an enzyme label.)
Assay [2] shares this target. The assay is described as follows: ELISA on plate-coated human CD228, pH 7.5.
Assay [3] shares this target. The assay is described as follows: ELISA on plate-coated human CD228, pH 6.3.
The target is the same in assay [4]. The assay is described as follows: ELISA on plate-coated human CD228, pH 6.66.
For assay [5] the target is unchanged. The assay is described as follows: ELISA on plate-coated human CD228, pH 5.6.
Assay [6] has the same target. The assay is described as follows: ELISA on plate-coated human CD228, pH 4.55.
The target is the same in assay [7]. The assay is described as follows: ELISA on plate-coated human CD228, pH 5.1.
The target is the same in assay [8]. The assay is described as follows: ELISA on plate-coated human CD228, pH 7.1.
For assay [9] the target is unchanged. The assay is described as follows: ELISA on plate-coated human CD228, pH 7.4.
The target is the same in assay [10]. The assay is described as follows: ELISA on plate-coated human CD228, pH 4.
In assay [11] the target is T1, human CD228 on the cell surface (RPMI-7951 cells stably expressing human CD228; A375 cells) (human) (UniProt P08582).
T1 sequence (looked up): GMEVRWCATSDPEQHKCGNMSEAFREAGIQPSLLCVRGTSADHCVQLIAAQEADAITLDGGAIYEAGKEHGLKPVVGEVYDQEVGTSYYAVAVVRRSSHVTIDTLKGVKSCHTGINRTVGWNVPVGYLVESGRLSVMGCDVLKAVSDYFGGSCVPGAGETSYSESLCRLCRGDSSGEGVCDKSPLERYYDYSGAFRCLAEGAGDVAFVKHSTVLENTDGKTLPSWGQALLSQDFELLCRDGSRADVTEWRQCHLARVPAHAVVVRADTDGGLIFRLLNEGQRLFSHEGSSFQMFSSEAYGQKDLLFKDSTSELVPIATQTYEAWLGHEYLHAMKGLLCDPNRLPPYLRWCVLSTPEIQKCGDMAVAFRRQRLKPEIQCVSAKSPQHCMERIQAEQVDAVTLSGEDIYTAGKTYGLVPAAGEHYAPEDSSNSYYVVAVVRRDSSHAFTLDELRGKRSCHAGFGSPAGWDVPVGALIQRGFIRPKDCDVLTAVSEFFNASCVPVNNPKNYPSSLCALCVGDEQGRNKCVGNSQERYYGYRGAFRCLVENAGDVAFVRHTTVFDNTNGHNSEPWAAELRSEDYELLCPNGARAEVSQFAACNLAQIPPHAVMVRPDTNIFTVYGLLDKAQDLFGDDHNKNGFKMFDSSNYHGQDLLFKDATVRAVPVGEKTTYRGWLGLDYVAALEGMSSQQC
The assay is described as follows: competition flow cytometry, RPMI-7951 cells stably expressing human CD228; competitor 5 nM AF647-labeled mL49; unlabeled antibody 0.06-1000 nM.

Assay [12] has as its target T2, human CD228 on the cell surface (RPMI-7951 cells stably expressing human CD228; A375 cells) (human, UniProt P08582 20-709).
T2 construct: whole, on cells; also called p97; melanotransferrin
T2 sequence (looked up): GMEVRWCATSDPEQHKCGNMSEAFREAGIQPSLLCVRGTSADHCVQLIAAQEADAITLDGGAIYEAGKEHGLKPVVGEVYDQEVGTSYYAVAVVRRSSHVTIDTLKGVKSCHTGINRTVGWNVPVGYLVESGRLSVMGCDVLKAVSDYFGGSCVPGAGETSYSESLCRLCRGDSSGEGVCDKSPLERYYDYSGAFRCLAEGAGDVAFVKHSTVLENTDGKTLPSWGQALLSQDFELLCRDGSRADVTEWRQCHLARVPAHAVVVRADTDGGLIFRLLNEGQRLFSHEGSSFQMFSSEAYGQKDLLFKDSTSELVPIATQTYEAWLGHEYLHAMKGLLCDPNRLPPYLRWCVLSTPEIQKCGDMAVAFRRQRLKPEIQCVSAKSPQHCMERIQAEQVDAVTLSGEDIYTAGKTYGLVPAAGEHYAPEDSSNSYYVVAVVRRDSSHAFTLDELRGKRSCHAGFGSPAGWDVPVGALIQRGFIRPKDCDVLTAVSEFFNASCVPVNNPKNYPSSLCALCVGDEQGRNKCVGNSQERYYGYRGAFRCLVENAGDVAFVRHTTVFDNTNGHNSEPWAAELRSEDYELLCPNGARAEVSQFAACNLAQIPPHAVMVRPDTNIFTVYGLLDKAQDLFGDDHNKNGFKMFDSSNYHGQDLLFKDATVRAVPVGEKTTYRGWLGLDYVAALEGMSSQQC
The description is as above. Here is the method:
(§1) Binding curves for each resulting antibody was determined by a competition binding assay. Briefly, 1×10⁵ RPMI-7951 cells stably expressing human CD228 were aliquoted per well of a 96-well v-bottom plates on ice. […] Cells were pelleted and washed 3 times with PBS/BSA. The cells were pelleted and resuspended in 125 μL of PBS/BSA. Fluorescence was analyzed by flow cytometry, using percent of saturated fluorescent signal to determine percent labeled murine CD228 mAb bound.

Assay [13] addresses T2, human CD228 on the cell surface …. The description is as above. The procedure: as §1
This is another data set of the same source.

For assay [14] the target is unchanged. The assay is described as follows: saturation binding by flow cytometry on RPMI-7951 cells stably expressing human CD228; apparent KD. The procedure:
(§2) The KD for each resulting antibody was then determined by a saturation binding assay. Briefly, 1×10⁵ RPMI-7951 cells stably expressing human CD228 were aliquoted per well of a 96-well v-bottom plates. Each CD228 antibody was added in concentrations ranging from 0.05 pM to 340 nM and incubated on ice for 60 minutes. Cells were pelleted and washed 3× with PBS/BSA followed by addition of 10 ug/ml of a PE labeled anti-human IgG goat secondary antibody and incubated on ice for an additional 60 minutes. Cells were pelleted and washed 3× with PBS/BSA and resuspended in 125 μL of PBS/BSA. Fluorescence was analyzed by flow cytometry, using percent of saturated fluorescent signal to determine percent bound and to subsequently calculate apparent KD. The binding curves for recombinant human anti-CD228 antibodies are shown in FIG. 13 and the KD for cL49ec (chimeric LA9 with an S239C mutation in the […] constant region), hL49 HALA G1, hL49 HALB G1, and hL49 HALC G1 are shown in Table 8. The antibody called “HALC,” “hL49,” or “hL49-HALC” which comprises heavy chain “HA” and the light chain “LC” was selected for use in all other experiments.

Assay [15] shares this target. The assay is described as follows: saturation binding by flow cytometry, RPMI-7951 cells stably expressing human CD228; PE anti-human IgG secondary; row 'ug/mL' of the drawn table headed 'kD'. Here is the method:
as §2
A general note: A flow cytometer gives signals particle by particle.

Assay [16] shares this target. The assay is described as follows: competition flow cytometry, RPMI-7951 cells stably expressing human CD228; competitor 5 nM AF647-labeled mL49; unlabeled antibody 0.06-1000 nM. The procedure:
as §1
The source holds these as a separate data set.

The target is the same in assay [17]. The assay is described as above. The procedure:
as §1
This is another data set of the same source.

As a reminder, the EC50 is the concentration giving half of the maximal effect. The low end stands for an effect from little substance, the high end for a need for much substance. On to cL235 (antibody), for which the EC50 in assay [1] was 0.838 nM; in assay [2], 0.694 nM; in [3] it was 0.749 nM; in assay [4], 0.757 nM; in assay [5] it was 0.74 nM; in assay [6], 0.727 nM. Besides, the EC50 amounted to 0.756 nM in [7], 0.724 nM in assay [8], 0.767 nM in assay [9] and 0.809 nM in assay [10].

B1: hL49ec HCLA (antibody, V domains shown)
VH: QVQLQESGPGLVKPSETLSLTCTVSGDSITSGYWNWIRQFPGKGLEYMGYISDSGITYYNPSLKSRITISRDTSKNQYSLKLSFVTAADTAVYNCARRTLATYYAMDYWGQGTLVTVSS
VL: DFVMTQSPLSLPVTLGQPASISCRASQSLVHSNGNTYLHWFQQRPGQSPRRLIYRVSNRFSGVPDRFSGSGSGTDFTLKISRVEAEDVGVYYCSQSTHVPPTFGQGTKLEIK
B1: the IC50 (read off the curve) in assay [11] came out at 60 nM.

B2: hL49ec HBLA (antibody, V domains shown)
VH: QVQLQESGPGLVKPSETLSLTCTVSGDSITSGYWNWIRQFPGKGLEYMGYISDSGITYYNPSLKSRITISRDTSKNQYSLKLSSVTAADTAVYYCARRTLATYYAMDYWGQGTLVTVSS
VL: DFVMTQSPLSLPVTLGQPASISCRASQSLVHSNGNTYLHWFQQRPGQSPRRLIYRVSNRFSGVPDRFSGSGSGTDFTLKISRVEAEDVGVYYCSQSTHVPPTFGQGTKLEIK
With B2, the IC50 (read off the curve) in assay [11] worked out at 40 nM.

B3: hL49ec HALA (antibody, V domains shown)
VH: QVQLQESGPGLVKPSETLSLTCTVSGDSITSGYWNWIRQPPGKGLEYIGYISDSGITYYNPSLKSRVTISRDTSKNQYSLKLSSVTAADTAVYYCARRTLATYYAMDYWGQGTLVTVSS
VL: DFVMTQSPLSLPVTLGQPASISCRASQSLVHSNGNTYLHWFQQRPGQSPRRLIYRVSNRFSGVPDRFSGSGSGTDFTLKISRVEAEDVGVYYCSQSTHVPPTFGQGTKLEIK
notes: Same variable regions as m5 (hL49 HALA G1); The sheet prints 'ec', so it is kept apart from the G1 form; also called HALA in the 'ec' format
For B3, the “IC50 (read off the curve)” value in assay [12] and in assay [13] was about 40 nM each time.

B4: hL49 HALA G1 (antibody, V domains shown)
VH: QVQLQESGPGLVKPSETLSLTCTVSGDSITSGYWNWIRQPPGKGLEYIGYISDSGITYYNPSLKSRVTISRDTSKNQYSLKLSSVTAADTAVYYCARRTLATYYAMDYWGQGTLVTVSS
VL: DFVMTQSPLSLPVTLGQPASISCRASQSLVHSNGNTYLHWFQQRPGQSPRRLIYRVSNRFSGVPDRFSGSGSGTDFTLKISRVEAEDVGVYYCSQSTHVPPTFGQGTKLEIK
notes: Humanized L49 with heavy chain HA and light chain LA; 'G1' (IgG1)
As for B4, the Kd in [14] amounted to 5.3 nM; in [15], 0.8 µg/mL.

B5: hL49ec HCLB (antibody, V domains shown)
VH: QVQLQESGPGLVKPSETLSLTCTVSGDSITSGYWNWIRQFPGKGLEYMGYISDSGITYYNPSLKSRITISRDTSKNQYSLKLSFVTAADTAVYNCARRTLATYYAMDYWGQGTLVTVSS
VL: DFVMTQSPLSLPVTLGQPASISCRASQSLVHSNGNTYLHWYQQRPGQSPRLLIYRVSNRFSGVPDRFSGSGSGTDFTLKISRVEAEDVGVYYCSQSTHVPPTFGQGTKLEIK
As to B5, the IC50 (read off the curve) in assay [11] stood at 20 nM.

B6: hL49ec HBLB (antibody, V domains shown)
VH: QVQLQESGPGLVKPSETLSLTCTVSGDSITSGYWNWIRQFPGKGLEYMGYISDSGITYYNPSLKSRITISRDTSKNQYSLKLSSVTAADTAVYYCARRTLATYYAMDYWGQGTLVTVSS
VL: DFVMTQSPLSLPVTLGQPASISCRASQSLVHSNGNTYLHWYQQRPGQSPRLLIYRVSNRFSGVPDRFSGSGSGTDFTLKISRVEAEDVGVYYCSQSTHVPPTFGQGTKLEIK
Regarding B6, the IC50 (read off the curve) in [11] was 30 nM.

B7: hL49ec HALB (antibody, V domains shown)
VH: QVQLQESGPGLVKPSETLSLTCTVSGDSITSGYWNWIRQPPGKGLEYIGYISDSGITYYNPSLKSRVTISRDTSKNQYSLKLSSVTAADTAVYYCARRTLATYYAMDYWGQGTLVTVSS
VL: DFVMTQSPLSLPVTLGQPASISCRASQSLVHSNGNTYLHWYQQRPGQSPRLLIYRVSNRFSGVPDRFSGSGSGTDFTLKISRVEAEDVGVYYCSQSTHVPPTFGQGTKLEIK
notes: Same variable regions as m6 (hL49 HALB G1); The sheet prints 'ec', so it is kept apart from the G1 form; also called HALB in the 'ec' format
Regarding B7, the “IC50 (read off the curve)” value in assay [12] lay in the range of 20 to 30 nM.

B8: hL49 HALB G1 (antibody, V domains shown)
VH: QVQLQESGPGLVKPSETLSLTCTVSGDSITSGYWNWIRQPPGKGLEYIGYISDSGITYYNPSLKSRVTISRDTSKNQYSLKLSSVTAADTAVYYCARRTLATYYAMDYWGQGTLVTVSS
VL: DFVMTQSPLSLPVTLGQPASISCRASQSLVHSNGNTYLHWYQQRPGQSPRLLIYRVSNRFSGVPDRFSGSGSGTDFTLKISRVEAEDVGVYYCSQSTHVPPTFGQGTKLEIK
notes: Humanized L49 with heavy chain HA and light chain LB; 'G1' (IgG1)
For the molecule B8, the Kd in assay [14] was found to be 7.8 nM; in assay [15], 1.2 µg/mL.

B9: cL49ec (chimeric L49 with an S239C mutation) (antibody, V domains shown)
VH: EVQLQESGPSLVKPSQTLSLTCSVTGDSITSGYWNWIRKFPGNKLEYMGYISDSGITYYNPSLKSRISITRDTSKNQYYLQLNFVTAEDTATYNCARRTLATYYAMDYWGQGTSVTVSS
VL: DFVMTQTPLSLPVSLGDQASISCRASQSLVHSNGNTYLHWYLQKPGQSPKLLIYRVSNRFSGVPDRFSGSGSGTDFTLKISRVEAEDLGVYFCSQSTHVPPTFGGGTKLEIK
notes: Human constant regions with S239C; also called chimeric LA9
With B9, the “IC50 (read off the curve)” value in assay [12], in assay [16], in [17] and in assay [13] was about 30 nM in each case. Moreover, the Kd in assay [14] was 5.8 nM; in assay [15], 0.9 µg/mL.
